In PMC12458545, “Repurposing a Detrimental Antibody Epitope as Targeted Therapeutics for Sepsis and Rheumatoid Arthritis” (Research Square, 2025):
Entries after “also recorded” stand apart in the source; their conditions may differ.

Assays:
[1] = test system: CLP-induced sepsis; assay: CLP sepsis survival; assay type: in vivo, Balb/C mice
Procedure: Experimental sepsis was induced in Balb/C mice via cecal ligation and puncture (CLP) as previously described,[30],[37]. […] Briefly, mice were anesthetized intramuscularly with ketamine (75 mg/kg, Henry Schein Animal Health, Dublin, Ohio) and xylazine (10 mg/kg, Sigma-Aldrich) before a midline abdominal incision was made in the lower left abdomen. The cecum was ligated with a 4–0 silk suture at 50% of its length from the distal end, and punctured twice with a 21-gauge needle to induce moderate to severe sepsis. The cecum was returned to the abdominal cavity, and the incision was closed in layers. Approximately 30 min post-CLP, animals received imipenem/cilastatin (0.5 mg/mouse, Primaxin, Merck & Co., Inc.) and 1.0 mL of sterile saline for fluid resuscitation. Animals were randomized to control vehicle and experimental groups, administered P2 or P2–1 intraperitoneally at indicated doses and time points, and monitored for survival rates. To elucidate P2–1’s protective mechanisms, a separate group of Balb/C mice underwent CLP and received P2–1 (1.0 mg/kg) at 2 h and 20 h post-CLP. At 24 h post-CLP, animals were euthanized to collect blood and measure serum cytokines and chemokines using murine Cytokine Antibody Arrays.
All data were first assessed for normality using the Shapiro-Wilk test before applying the appropriate statistical analyses. All data are presented as mean ± standard error of the mean (SEM) unless otherwise specified. For comparison among multiple groups with non-normal (skewed) distribution, the Kruskal-Wallis ANOVA test followed by Dunn’s post-hoc test was used to evaluate statistical differences. Survival curves were analyzed using Kaplan-Meier method and compared using the nonparametric log-rank (Mantel-Cox) test. Statistical significance was defined as a P value less than 0.05.

[2] = water solubility; assay type: physicochemical
[3] = test system: human PBMCs; conditions: TN; cited from earlier work
Text: To validate these RNA-seq findings, we quantified HMGB1-induced cytokine/chemokine protein levels using Cytokine Antibody Arrays.

[4] = test system: TN peptides (P1-P10); assay: dot blot epitope mapping of anti-TN mAbs with TN peptides P1-P10; assay type: binding, human; conditions: peptides 0.1 μg in 2.5 μl on nitrocellulose; mAb 1.0 μg/mL; chemiluminescence
Procedure: A library of ten synthetic peptides (P1-P10, fig. S1B) corresponding to C-terminus portion of TN protein (fig. S1A) were spotted (0.1 μg in 2.5 μl) onto nitrocellulose membranes (Thermo Scientific, Cat No. 88013). Membranes were blocked with 5% milk in PBS-T (PBS with 0.1% Tween-20) and then incubated with anti-TN monoclonal antibodies (mAb8 or mAb9, 1.0 μg/mL). After washing, membranes were incubated with HRP-conjugated goat anti-mouse IgG (Jackson ImmunoResearch), and signals were detected using chemiluminescence as described,[30].

[5] = test system: CLP-induced sepsis; conditions: anti-TN mAbs; mice; cited from earlier work
[6] = target: T1, P5 peptide of tetranectin (Homo sapiens, UniProt P05452); assay: far-Western, overlay or dot blot; synthetic TN peptides P1-P10 spotted (0.1 μg in 2.5 μl) on nitrocellulose, blocked with 5% milk in PBS-T; mAb8 or mAb9 at 1.0 μg/mL; HRP goat anti-mouse IgG, chemiluminescence; conditions: both partners purified
T1 construct: synthetic peptide from the C-terminal portion (CRD) of human tetranectin; S1A, S1B; source: synthetic peptide
T1 chain: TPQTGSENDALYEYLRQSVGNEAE

[7] = test system: human PBMCs; assay: RNA-seq of HMGB1-stimulated PBMCs; assay type: cell-based; conditions: HMGB1 stimulation alone
Procedure: (§1) Human blood was purchased from the New York Blood Center (Long Island City, NY, USA), and PBMCs were isolated by density gradient centrifugation through Ficoll (Ficoll-Paque PLUS) as previously described,[30]. PBMCs were cultured in RPMI-1640 supplemented with 10% human serum, 2 mM L-glutamine, 100 U/mL penicillin, and 100 μg/mL streptomycin (all from Invitrogen). For experiments, PBMCs were stimulated with recombinant human HMGB1 (0.5 or 2.0 μg/ml) for 16 hours, either alone or in combination with P2–1 at 5.0 or 10.0 μg/ml. Cell-free supernatants were collected for analysis of cytokines/chemokines levels by Cytokine Antibody Arrays, or pCTS-L levels by Western blotting analysis as described.
Total RNA was isolated from human PBMCs stimulated with HMGB1 in the absence or presence of P2–1 (5.0 or 10.0 μg/ml) using the RNeasy Mini Kit (Qiagen) according to the manufacturer’s instructions. RNA quantity and quality were assessed using a NanoDrop spectrophotometer and an Agilent Bioanalyzer. cDNA libraries were prepared using the TruSeq RNA Library Prep Kit v2 (Illumina) and sequenced on an Illumina NovaSeq 6000 platform to generate 100 bp paired-end reads. Raw sequencing reads were quality-checked using FastQC, trimmed with Trimmomatic, and aligned to the human reference genome (GRCh38) using HISAT2. Gene counts were quantified using StringTie and DESeq2 was used for differential gene expression analysis. Volcano plots and heatmaps were generated using ggplot2 and pheatmap packages in R, respectively. Genes with an adjusted P-value < 0.05 and a |log2-fold change| > 1 were considered differentially expressed.

[8] = test system: human PBMCs; assay: HMGB1-induced cytokine/chemokine secretion, Cytokine Antibody Arrays; assay type: cell-based; conditions: HMGB1 0.5 or 2.0 μg/ml alone, 16 h
Procedure: as §1
Levels of cytokines and chemokines in mouse serum and joint tissue lysates, or human PBMC culture supernatants were determined using murine or human Cytokine Antibody Arrays (e.g., Cat. No. M0308003 or Cat. No. AAH-CYT-3–4, RayBiotech Inc., Norcross, GA, USA) as previously described,[30],[86],[87]. Serum samples were collected from mice at 24 h post-CLP. The soft tissue of the hindpaw and ankle joints was carefully collected using a previously described protocol. Briefly, 0.5 g of fresh soft tissue was cut into 3 mm pieces, and mixed with 400 μL of a hypertonic solution (500 mL PBS with 4.5 g NaCl and 2× protease inhibitor cocktail) in a 10 mL syringe. Mechanical extrusion, involving 30 rapid back-and-forth movements of the plunger, was then performed. The expelled extracellular fluid was collected, immediately aliquoted, and stored at −20°C until analysis. Cell-conditioned medium was collected from PBMC cultures after 16 h of stimulation. Arrays were performed according to the manufacturer’s protocol, followed by chemiluminescent detection and densitometric quantification as previously described,[30].

[9] = test system: human PBMCs; assay: HMGB1-induced pCTS-L secretion, Western blot; assay type: cell-based; conditions: HMGB1 alone
Procedure: as §1
Cell-conditioned medium from human PBMC cultures was collected, and concentrated using Amicon Ultra Centrifugal Filters. Equal volumes of conditioned medium, representing equivalent numbers of cells, were resolved on sodium dodecyl sulfate (SDS)-polyacrylamide gels and transferred to polyvinylidene difluoride (PVDF) membranes. After blocking with 5% nonfat milk in Tris-buffered saline with 0.1% Tween 20 (TBST), membranes were probed with a home-made primary monoclonal antibody against pCTS-L (e.g., mAb2, 1:1000) overnight as previously described. After washing, membranes were incubated with a horseradish peroxidase-conjugated secondary antibody. Protein bands were visualized using enhanced chemiluminescence (ECL) substrate (Pierce) and detected with a chemiluminescence imaging system (e.g., Bio-Rad ChemiDoc MP). The relative levels of specific proteins were determined using the UN-SCAN-IT Gel Analysis Software Version 7.1 (Silk Scientific Inc., Orem, UT, USA) and expressed in arbitrary units (AU).

Molecule: 55-KVHMKCFLAFTQTKTF-70 [P2]
- survival ([1]; P2 5.0 mg/kg at 2 h and 24 h post-CLP, 5 mg/kg): significantly increased survival rates in both male and female mice; also recorded: significantly increased animal survival
- animal survival (# of Survivors) ([1]; P2 5.0 mg/kg i.p. at 2 h and 24 h post-CLP, male and female mice, P < 0.05 vs. vehicle): 60%
- water solubility [2]: poor water solubility

B1: TN: full-length human tetranectin (residues 1-181) (protein, UniProt P05452 22-202, looked up)
Tetranectin: EPPTQKPKKIVNAKKDVVNTKMFEELKSRLDTLAQEVALLKEQQALQTVCLKGTKVHMKCFLAFTQTKTFHEASEDCISRGGTLGTPQTGSENDALYEYLRQSVGNEAEIWLGLNDMAAEGTWVDMTGARIAYKNWETEITAQPDGGKTENCAVLSGAANGKWFDKRCRDQLPYICQFGIV
- HMGB1-induced cytokines (e.g., IL-6) and chemokines (e.g., MCP-1) [3]: did not affect HMGB1-induced cytokines (e.g., IL-6) and chemokines (e.g., MCP-1)

B2: anti-tetranectin monoclonal antibody mAb8 (antibody, V domains shown)
VH: DVNLVESGGGLVKLGGSLKLSCADSGFTFSSYYMSWVRQTPEKRLELVAAINSNGGRTYYPDTVKGRFTISRDNAKNTLYLQMSSLKSEDTALYYCARQGKNGLDYWGQGTSVTVSS
VL: DIQMTQTTSSLSASLGDRVTISCRASQDISNHLNWYQQKPDGTIKLLIYYTSRLHSGVPSRFSGSGSGTDFSLSISNLEQEDIATYFCQQGKTLPPTFGGGTKLEIK
notes: mouse monoclonal antibody; also called protective anti-TN mAb; source: generated in Balb/C and C57BL/6 mice as previously described [6,30]; hybridoma
- TN peptide bound in dot blot [4]: targeted P5; also recorded: binds P5
- effect on septic survival/lethality [5]: protected mice against sepsis
- binding result [6]: binds

B3: HMGB1: recombinant human HMGB1 expressed in E. coli; PBMC stimulus and SPR target (protein)
chain: MGKGDPKKPRGKMSSYAFFVQTCREEHKKKHPDASVNFSEFSKKCSERWKTMSAKEKGKFEDMAKADKARYEREMKTYIPPKGETKKKFKDPNAPKRPPSAFFLFCSEYRPKIKGEHPGLSIGDVAKKLGEMWNNTAADDKQPYEKKAAKLKEKYEKDIAAYRAKGKPDAAKKGVVKAEKSKKKKEEEEDEEDEEDEEEEEDEEDEDEEEDDDDE
- gene expression of inflammatory cytokines and chemokines [7]: profoundly upregulated many inflammatory cytokines
- cytokine and chemokine protein levels (e.g., TNF, IL-6, IL-10, CXCL5, CXCL1, CXCL8, CCL2, CCL7) [8]: significantly increased protein levels of various cytokines
- pCTS-L expression and secretion [9]: induced pCTS-L expression and secretion in human immune cells
